# Results reported in article PMC4471001.
# Experiments:
# [1] = target: human importin α7 (human) (UniProt O60684); test: fluorescence polarisation; competition, under blue light (455 nm, 6 mW/cm^2; value read after 2 minutes of illumination); 25 nM TAMRA peptide …, 50 mM Tris pH 7.5, 100 mM NaCl, 1 mM DTT, 25°C; Kd from IC50
# [2] = target: human importin α5 (human) (UniProt P52294); test: as above
# [3] = target: human importin α7 (human) (UniProt O60684); test: fluorescence polarisation; competition, dark (value read after 5 minutes in absence of light); 25 nM TAMRA peptide …, 50 mM Tris pH 7.5, 100 mM NaCl, 1 mM DTT, 25°C; Kd from IC50
# [4] = target: human importin α5 (human) (UniProt P52294); test: as above
# [5] = target: human importin α5 (human) (UniProt P52294); test: fluorescence polarisation; S2 Fig D; method not named for this panel, taken as the paper's fluorescence polarization assay; dark and blue light, binding light independent
Kd [1] [nM],Kd [2] [nM],Kd [3] [nM],Kd [4] [nM],Kd [5] [nM],Substance
340,250,2000,1500,–,AsLOV2cNLS (from UniProt O49003 404-546) (designed binder)
–,–,–,–,1,AsLOV2cMyc (from UniProt O49003 404-546)
